Assay [1] relates to liver graft, DA rat to LEW rat (acute rejection). Kind of assay: Immunosuppressive activity of the IDO protein using acute rejection model (sympatric liver transplantation, DA rat to LEW rat). It is filed as in vivo. The following applies: for average days of take (survival): consecutive days through the tail vein after liver transplantation, N = 6. On the procedure: As for the animals, male LEW and DA rats (200-350 g) were used. In the administration of the aforementioned gene therapeutic agents, immediately after Ringer's Solution (Fuso Pharmaceutical Co. Ltd.) was used in the operation and was allowed to perfuse the portal veins and the liver, the respective agents were infused from the portal veins into the liver at a speed of 5 ml/min. After allowing to stand in the culture solution for 30 minutes, the liver into which the gene had been transferred was grafted to the LEW rat.
A model similar to that in Example 2 was used to judge the therapeutic effect of the IDO protein prepared in Example 5. The IDO protein was administered consecutive days through the tail vein immediately after the liver transplantation at a dosage of 300 μg/rat.

Assay [2] concerns spleen cells derived from PVG rat and mitomycin-treated DA rat. Kind of assay: Lymphocyte mixed culture test (BrdU incorporation). It is filed as cell-based. The following applies: 4 days culture, BrdU 10 μM for last 16 hours; FIG. 2. On the procedure: To study the immunosuppressive activity of the human IDO protein prepared in Example 10, a lymphocyte mixed culture test was carried out. The spleen cells derived from a non-treated PVG rat and the spleen cells derived from a DA rat treated with 25 μg/ml of mitomycin (SIGMA-Aldrich Corporation) were seeded on a U bottom 96-well plate (NUNC Inc.) at 5×10^4/well and at 8×10^6/well, respectively. The IDO protein was then added and culturing was done for 4 days. Sixteen hours before the finish of culturing 5-bromo-2′deoxyuridine (BrdU) was added at a final concentration of 10 μM. The amount of BrdU incorporated into the intracellular DNA was quantified using a BrdU Labeling & Detection Kit III (Roche Diagnostics Inc.).

B1: IDO protein: Recombinant murine indoleamine 2,3-dioxygenase protein prepared in Example 5 from E. coli (protein, UniProt P28776 1-407, looked up)
Indoleamine 2,3-dioxygenase 1: MALSKISPTEGSRRILEDHHIDEDVGFALPHPLVELPDAYSPWVLVARNLPVLIENGQLREEVEKLPTLSTDGLRGHRLQRLAHLALGYITMAYVWNRGDDDVRKVLPRNIAVPYCELSEKLGLPPILSYADCVLANWKKKDPNGPMTYENMDILFSFPGGDCDKGFFLVSLLVEIAASPAIKAIPTVSSAVERQDLKALEKALHDIATSLEKAKEIFKRMRDFVDPDTFFHVLRIYLSGWKCSSKLPEGLLYEGVWDTPKMFSGGSAGQSSIFQSLDVLLGIKHEAGKESPAEFLQEMREYMPPAHRNFLFFLESAPPVREFVISRHNEDLTKAYNECVNGLVSVRKFHLAIVDTYIMKPSKKKPTDGDKSEEPSNVESRGTGGTNPMTFLRSVKDTTEKALLSWP
modifications: recombinant, E. coli
Turning to B1, the “average days of take (survival)” value in assay [1] (50 μg/rat) was 10.6 days; in assay [1] (300 μg/rat), above 30 days. Moreover, in assay [1] (300 μg/rat, tail vein, consecutive days), the “days of take of the liver graft (in words)” value is reported as “marked increase”. The “immunosuppressive activity (amount of BrdU incorporated into intracellular DNA)” value in assay [2] is given as “immunosuppressive effect was observed”.

The values above are taken from patent publication US20030139361A1, “Drug for gene therapy” (priority 2000, published 2003).
